Measurements as given in publication PMC4596688, “Structural determinants of nuclear export signal orientation in binding to exportin CRM1” (eLife, 2015).
Ends that are not written are not given here. * marks the point of attachment. FITC = O=C1OC2(c3ccc(O)cc3Oc3cc(O)ccc32)c2ccc(NC(=S)*)cc21

Assays:
[1] = target: CRM1* (ScCRM1 residues 1-1058, Δ377-413, V441D, 537DLTVK541 to GLCEQ) (Saccharomyces cerevisiae, UniProt P30822 1-1058, Δ377–413 | V441D | 537DLTVK541 to GLCEQ); assay: crystal structure; quaternary CRM1*-RanGppNHp-RanBP1 (Yrb1p)-NES peptide complexes, assembled 1:3:10 and purified by gel filtration in GF buffer; crystals in 17% PEG3350, 100 mM Bis-Tris pH 6.4, 200 mM ammonium nitrate, 10 mM spermine HCl; details: both partners purified
[2] = target: Full-length human CRM1 (HsCRM1) (human, UniProt O14980 1-1071); assay: differential bleaching monitored with a microscale thermophoresis instrument (direct titration); HsCRM1 serially diluted from 40 μM to 1.2 nM, mixed 1:1 with 120 μM ScRan-GTP and 40 nM FITC-PKI^NES; TB buffer with 15% glycerol, 0.05% Tween-20; 1 hr, room temperature; details: both partners purified
Full-length human CRM1 (HsCRM1), sequence (O14980 whole entry): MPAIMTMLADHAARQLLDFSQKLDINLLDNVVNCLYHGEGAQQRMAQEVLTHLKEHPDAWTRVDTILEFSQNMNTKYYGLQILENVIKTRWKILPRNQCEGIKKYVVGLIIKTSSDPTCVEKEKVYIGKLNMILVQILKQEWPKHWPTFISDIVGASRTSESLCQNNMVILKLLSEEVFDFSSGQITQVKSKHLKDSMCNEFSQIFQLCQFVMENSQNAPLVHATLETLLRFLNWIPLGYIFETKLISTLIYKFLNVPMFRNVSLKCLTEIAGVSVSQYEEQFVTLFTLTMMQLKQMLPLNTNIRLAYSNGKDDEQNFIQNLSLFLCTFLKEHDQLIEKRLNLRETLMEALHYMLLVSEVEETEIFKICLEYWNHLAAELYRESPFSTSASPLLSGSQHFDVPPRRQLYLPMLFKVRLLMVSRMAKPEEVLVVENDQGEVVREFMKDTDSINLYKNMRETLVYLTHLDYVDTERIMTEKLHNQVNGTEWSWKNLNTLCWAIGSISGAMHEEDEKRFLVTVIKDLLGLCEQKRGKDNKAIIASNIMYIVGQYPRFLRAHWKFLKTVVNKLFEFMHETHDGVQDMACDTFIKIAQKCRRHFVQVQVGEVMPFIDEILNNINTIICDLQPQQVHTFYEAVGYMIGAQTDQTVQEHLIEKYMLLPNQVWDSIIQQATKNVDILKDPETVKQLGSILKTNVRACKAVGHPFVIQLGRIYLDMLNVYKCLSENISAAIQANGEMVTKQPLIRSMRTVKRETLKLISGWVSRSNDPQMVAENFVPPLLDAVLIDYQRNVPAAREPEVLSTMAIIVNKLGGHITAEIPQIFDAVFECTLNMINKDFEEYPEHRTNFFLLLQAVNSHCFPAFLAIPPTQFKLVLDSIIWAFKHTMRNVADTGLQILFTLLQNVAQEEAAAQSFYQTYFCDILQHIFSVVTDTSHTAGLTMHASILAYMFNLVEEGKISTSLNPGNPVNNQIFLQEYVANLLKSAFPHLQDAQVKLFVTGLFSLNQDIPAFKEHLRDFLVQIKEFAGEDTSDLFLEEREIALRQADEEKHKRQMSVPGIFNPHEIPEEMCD

B1: hRio2^NES peptide used for crystallization (GGSY-389RSFEMTEFNQALEEI403) (peptide)
peptide: GGSYRSFEMTEFNQALEEI
modifications: not fully specified (residue 9); printed as GGSY^389^RSFEMTEFNQALEEI^403^
notes: residues before the NES that are left after TEV cleavage; NES of human Rio2 (hRio2), residues 389-403; The text speaks of a native and of a selenomethionine peptide; Residues 391-403 modelled; also called Selenomethione-hRio2; source: E. coli BL-21(DE3), MBP fusion purified (amylose, ion exchange), cleaved with TEV, peptide isolated by gel filtration; not shown: MBP, N-terminal, cleaved
B1: binds [1].

B2: CPEB4^NES peptide used for crystallization (GGSY-379RTFDMHSLESSLIDI393) (peptide)
peptide: GGSYRTFDMHSLESSLIDI
notes: residues before the NES that are left after TEV cleavage; NES of CPEB4, residues 379-393; source: E. coli BL-21(DE3), MBP fusion purified (amylose, ion exchange), cleaved with TEV, peptide isolated by gel filtration; not shown: MBP, N-terminal, cleaved
B2: binds [1].

B3: hRio2^NES-R peptide used for crystallization (peptide)
peptide: GGSYGKIEELAQNFETMEFSR
modifications: not fully specified (residue 17)
notes: also called Selenomethione-hRio2-R; source: E. coli BL-21(DE3), MBP fusion purified (amylose, ion exchange), cleaved with TEV, peptide isolated by gel filtration; not shown: MBP, N-terminal, cleaved
B3: binds [1].

B4: FITC-PKI^NES peptide (FITC-SGNSNELALKLAGLDINKT) (peptide)
peptide: {FITC}-SGNSNELALKLAGLDINKT
notes: also called fluorescent-labeled PKI^NES peptide; source: synthetic peptide (GenScript)
B4: binds [2].

B5: CPEB4^NES-R peptide used for crystallization (peptide)
peptide: GGSYRMIDILSSELSHMDFTR
notes: also called CPEB4-R; source: E. coli BL-21(DE3), MBP fusion purified (amylose, ion exchange), cleaved with TEV, peptide isolated by gel filtration; not shown: MBP, N-terminal, cleaved
B5: binds [1].

B6: PKI^NES-Flip3 peptide used for crystallization (peptide)
peptide: GGSYRSFDMNELALKLAGLD
notes: PKI NES helix with the ΦXΦ motif moved to the N-terminus and made larger (FDM), after GGSY left from TEV cleavage; also called PKI-Flip3; source: E. coli BL-21(DE3), MBP fusion purified (amylose, ion exchange), cleaved with TEV, peptide isolated by gel filtration; not shown: MBP, N-terminal, cleaved
B6: binds [1].
